Source: paper PMC5095800, “A standardized production pipeline for high profile targets from Mycobacterium tuberculosis” (Proteomics. Clinical Applications, 2016)

Biological target: the molecule itself
Test: SEC

B1: Ferritin BfrB (natural protein)
chain: MTEYEGPKTKFHALMQEQIHNEFTAAQQYVAIAVYFDSEDLPQLAKHFYSQAVEERNHAMMLVQHLLDRDLRVEIPGVDTVRNQFDRPREALALALDQERTVTDQVGRLTAVARDEGDFLGEQFMQWFLQEQIEEVALMATLVRVADRAGANLFELENFVAREVDVAPAASGAPHAAGGRL
notes: also called Rv3841; copies: 24
Q: B1 was tested. Which “stoichiometry N” value did it give?
A: 24
